Reference: the supplement of paper PMC9112550, “Optimization of the antimicrobial peptide Bac7 by deep mutational scanning” (BMC Biology, 2022)
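Also: peptides expressed intracellularly from a pBAD plasmid library in pooled LB shake-flask culture, induced with 0.3% L-arabinose, DNA abundance read by NGS, three biological replicates, DESeq2 with apeglm shrinkage.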

These sequences were tested on Escherichia coli TOP10 (assay: shrunken log2 fold change of peptide-encoding DNA abundance (4.5 h post-induction vs induction); higher = less antimicrobial activity (less host growth inhibition)). Conditions: time post-induction: 4.5 h; library: site-saturation at positions 5, 18, 19, 20.
In the case of RRIRVRPPRLPRPRPRPMMFPRP, the “shrunken log2 fold change” value is reported as -0.0953.
RRIRTRPPRLPRPRPRPCYIPRP was tested, and the “shrunken log2 fold change” value was -0.226.
In the case of RRIRERPPRLPRPRPRPDCFPRP, the “shrunken log2 fold change” value is reported as 0.316.
For RRIRVRPPRLPRPRPRPTKKPRP, the “shrunken log2 fold change” value was -0.0633.
In the case of RRIRMRPPRLPRPRPRPIFKPRP, the “shrunken log2 fold change” value is reported as 0.161.
For RRIRARPPRLPRPRPRPGFCPRP, the “shrunken log2 fold change” value was 0.572.
RRIRHRPPRLPRPRPRPTAGPRP was tested, and the “shrunken log2 fold change” value was -0.0268.
For RRIRNRPPRLPRPRPRPKVRPRP, the “shrunken log2 fold change” value was -0.0024.
In the case of RRIRGRPPRLPRPRPRPGYTPRP, the “shrunken log2 fold change” value is reported as -0.0605.
For RRIRQRPPRLPRPRPRPWWKPRP, the “shrunken log2 fold change” value was -0.00542.
For RRIRGRPPRLPRPRPRPWGTPRP, the “shrunken log2 fold change” value was 0.0721.
In the case of RRIRARPPRLPRPRPRPALAPRP, the “shrunken log2 fold change” value is reported as 0.554.
In the case of RRIRYRPPRLPRPRPRPELNPRP, the “shrunken log2 fold change” value is reported as -0.395.
With RRIRVRPPRLPRPRPRPRLQPRP the “shrunken log2 fold change” value was -0.000502.
With RRIRARPPRLPRPRPRPYQHPRP the “shrunken log2 fold change” value was -0.272.
For RRIRTRPPRLPRPRPRPGMAPRP, the “shrunken log2 fold change” value was -0.0805.
RRIRQRPPRLPRPRPRPHYRPRP was tested, and the “shrunken log2 fold change” value was -0.0839.
With RRIRYRPPRLPRPRPRPFGKPRP the “shrunken log2 fold change” value was -0.0625.
With RRIRMRPPRLPRPRPRPIDPPRP the “shrunken log2 fold change” value was -0.0553.
For RRIRMRPPRLPRPRPRPCPGPRP, the “shrunken log2 fold change” value was -0.000588.
RRIRRRPPRLPRPRPRPLTPPRP was tested, and the “shrunken log2 fold change” value was 0.489.
For RRIRPRPPRLPRPRPRPFRVPRP, the “shrunken log2 fold change” value was 0.0659.
RRIRYRPPRLPRPRPRPTGYPRP was tested, and the “shrunken log2 fold change” value was -1.16.
For RRIRHRPPRLPRPRPRPGTMPRP, the “shrunken log2 fold change” value was -0.0455.
With RRIRVRPPRLPRPRPRPWLAPRP the “shrunken log2 fold change” value was 0.232.
With RRIRKRPPRLPRPRPRPGTSPRP the “shrunken log2 fold change” value was 0.0376.
In the case of RRIRARPPRLPRPRPRPRFDPRP, the “shrunken log2 fold change” value is reported as 0.236.
With RRIRHRPPRLPRPRPRPYNFPRP the “shrunken log2 fold change” value was -0.078.
RRIRLRPPRLPRPRPRPYHSPRP was tested, and the “shrunken log2 fold change” value was -0.018.
With RRIRGRPPRLPRPRPRPREIPRP the “shrunken log2 fold change” value was 1.1.
RRIRIRPPRLPRPRPRPSWSPRP was tested, and the “shrunken log2 fold change” value was -0.458.
In the case of RRIRWRPPRLPRPRPRPAVHPRP, the “shrunken log2 fold change” value is reported as 0.631.
In the case of RRIRYRPPRLPRPRPRPFKTPRP, the “shrunken log2 fold change” value is reported as -0.398.
With RRIRQRPPRLPRPRPRPQIYPRP the “shrunken log2 fold change” value was 0.0392.
For RRIRARPPRLPRPRPRPFGGPRP, the “shrunken log2 fold change” value was 0.0726.
With RRIRSRPPRLPRPRPRPSRWPRP the “shrunken log2 fold change” value was 0.188.
RRIRIRPPRLPRPRPRPIPVPRP was tested, and the “shrunken log2 fold change” value was -0.0943.
RRIRDRPPRLPRPRPRPAECPRP was tested, and the “shrunken log2 fold change” value was 0.232.
For RRIRKRPPRLPRPRPRPGAVPRP, the “shrunken log2 fold change” value was 0.749.
For RRIRWRPPRLPRPRPRPAAQPRP, the “shrunken log2 fold change” value was -0.0638.
For RRIRTRPPRLPRPRPRPKMHPRP, the “shrunken log2 fold change” value was -0.0762.
In the case of RRIRLRPPRLPRPRPRPHHLPRP, the “shrunken log2 fold change” value is reported as -0.24.
For RRIRGRPPRLPRPRPRPTQFPRP, the “shrunken log2 fold change” value was 0.772.
RRIRYRPPRLPRPRPRPNLGPRP was tested, and the “shrunken log2 fold change” value was -0.0146.
In the case of RRIRNRPPRLPRPRPRPDAYPRP, the “shrunken log2 fold change” value is reported as 0.068.
RRIRFRPPRLPRPRPRPPRRPRP was tested, and the “shrunken log2 fold change” value was 0.826.
RRIRERPPRLPRPRPRPMQNPRP was tested, and the “shrunken log2 fold change” value was 0.168.
For RRIRARPPRLPRPRPRPMEEPRP, the “shrunken log2 fold change” value was -0.0115.
RRIRKRPPRLPRPRPRPVRHPRP was tested, and the “shrunken log2 fold change” value was 0.0899.
RRIRSRPPRLPRPRPRPWISPRP was tested, and the “shrunken log2 fold change” value was 0.181.
In the case of RRIRSRPPRLPRPRPRPQVHPRP, the “shrunken log2 fold change” value is reported as -0.012.
For RRIRERPPRLPRPRPRPAPYPRP, the “shrunken log2 fold change” value was -0.123.
In the case of RRIRRRPPRLPRPRPRPLWNPRP, the “shrunken log2 fold change” value is reported as 0.117.
With RRIRERPPRLPRPRPRPLYKPRP the “shrunken log2 fold change” value was -0.769.
For RRIRFRPPRLPRPRPRPNNCPRP, the “shrunken log2 fold change” value was -0.167.
RRIRGRPPRLPRPRPRPRMNPRP was tested, and the “shrunken log2 fold change” value was 0.572.
With RRIRHRPPRLPRPRPRPQKVPRP the “shrunken log2 fold change” value was -0.0567.
With RRIRKRPPRLPRPRPRPQYVPRP the “shrunken log2 fold change” value was -0.143.
With RRIRQRPPRLPRPRPRPWYQPRP the “shrunken log2 fold change” value was -0.000894.
With RRIRIRPPRLPRPRPRPIMDPRP the “shrunken log2 fold change” value was -0.364.
RRIRNRPPRLPRPRPRPPCYPRP was tested, and the “shrunken log2 fold change” value was -0.41.
With RRIRYRPPRLPRPRPRPHLVPRP the “shrunken log2 fold change” value was -0.0159.
RRIRGRPPRLPRPRPRPARQPRP was tested, and the “shrunken log2 fold change” value was 0.654.
With RRIRKRPPRLPRPRPRPATNPRP the “shrunken log2 fold change” value was 0.712.
In the case of RRIRGRPPRLPRPRPRPVELPRP, the “shrunken log2 fold change” value is reported as 0.354.
For RRIRGRPPRLPRPRPRPFGLPRP, the “shrunken log2 fold change” value was -0.0119.
With RRIRWRPPRLPRPRPRPKERPRP the “shrunken log2 fold change” value was 0.0355.
In the case of RRIRGRPPRLPRPRPRPNVPPRP, the “shrunken log2 fold change” value is reported as 0.0564.
With RRIRKRPPRLPRPRPRPHHYPRP the “shrunken log2 fold change” value was -0.737.
RRIRWRPPRLPRPRPRPPQQPRP was tested, and the “shrunken log2 fold change” value was 0.163.
In the case of RRIRYRPPRLPRPRPRPTVYPRP, the “shrunken log2 fold change” value is reported as -0.686.
In the case of RRIRPRPPRLPRPRPRPMPVPRP, the “shrunken log2 fold change” value is reported as 0.0347.
With RRIRKRPPRLPRPRPRPLVDPRP the “shrunken log2 fold change” value was 0.218.
For RRIRLRPPRLPRPRPRPGRKPRP, the “shrunken log2 fold change” value was 0.0459.
For RRIRHRPPRLPRPRPRPTQKPRP, the “shrunken log2 fold change” value was -0.00748.
With RRIRQRPPRLPRPRPRPFKEPRP the “shrunken log2 fold change” value was 0.343.
For RRIRSRPPRLPRPRPRPWDCPRP, the “shrunken log2 fold change” value was -0.00801.
RRIRPRPPRLPRPRPRPSYVPRP was tested, and the “shrunken log2 fold change” value was -0.127.
With RRIRIRPPRLPRPRPRPKRWPRP the “shrunken log2 fold change” value was -0.0451.
With RRIRIRPPRLPRPRPRPTKIPRP the “shrunken log2 fold change” value was -0.158.
In the case of RRIRHRPPRLPRPRPRPPPDPRP, the “shrunken log2 fold change” value is reported as 0.646.
For RRIRVRPPRLPRPRPRPRAYPRP, the “shrunken log2 fold change” value was -0.224.
With RRIRIRPPRLPRPRPRPWVEPRP the “shrunken log2 fold change” value was -0.211.
With RRIRWRPPRLPRPRPRPALKPRP the “shrunken log2 fold change” value was 0.0103.
In the case of RRIRTRPPRLPRPRPRPSWCPRP, the “shrunken log2 fold change” value is reported as -0.322.
In the case of RRIRQRPPRLPRPRPRPAKKPRP, the “shrunken log2 fold change” value is reported as -0.0522.
RRIRNRPPRLPRPRPRPPYLPRP was tested, and the “shrunken log2 fold change” value was -0.269.
For RRIRNRPPRLPRPRPRPAKLPRP, the “shrunken log2 fold change” value was -0.153.
In the case of RRIRNRPPRLPRPRPRPTWVPRP, the “shrunken log2 fold change” value is reported as 0.0257.
For RRIRIRPPRLPRPRPRPILFPRP, the “shrunken log2 fold change” value was -0.273.
In the case of RRIRQRPPRLPRPRPRPYWMPRP, the “shrunken log2 fold change” value is reported as 0.0425.
RRIRNRPPRLPRPRPRPLPSPRP was tested, and the “shrunken log2 fold change” value was 1.86.
RRIRARPPRLPRPRPRPSQGPRP was tested, and the “shrunken log2 fold change” value was -0.168.
For RRIRMRPPRLPRPRPRPNMTPRP, the “shrunken log2 fold change” value was 0.188.
With RRIRLRPPRLPRPRPRPFFSPRP the “shrunken log2 fold change” value was -0.0767.
With RRIRLRPPRLPRPRPRPGHSPRP the “shrunken log2 fold change” value was -0.0313.
For RRIRPRPPRLPRPRPRPFCHPRP, the “shrunken log2 fold change” value was -0.00162.
For RRIRARPPRLPRPRPRPQRWPRP, the “shrunken log2 fold change” value was 0.172.
For RRIRIRPPRLPRPRPRPHMCPRP, the “shrunken log2 fold change” value was -1.25.
With RRIRCRPPRLPRPRPRPEGGPRP the “shrunken log2 fold change” value was 0.477.
In the case of RRIRWRPPRLPRPRPRPKVKPRP, the “shrunken log2 fold change” value is reported as 0.49.
With RRIRIRPPRLPRPRPRPPKWPRP the “shrunken log2 fold change” value was -0.00369.
For RRIRGRPPRLPRPRPRPMHSPRP, the “shrunken log2 fold change” value was 0.668.
With RRIRFRPPRLPRPRPRPKVEPRP the “shrunken log2 fold change” value was 0.114.
With RRIRYRPPRLPRPRPRPVAFPRP the “shrunken log2 fold change” value was -0.717.
RRIRPRPPRLPRPRPRPYRQPRP was tested, and the “shrunken log2 fold change” value was -0.0384.
RRIRERPPRLPRPRPRPGGDPRP was tested, and the “shrunken log2 fold change” value was 0.0586.
RRIRWRPPRLPRPRPRPMHCPRP was tested, and the “shrunken log2 fold change” value was -0.0635.
RRIRFRPPRLPRPRPRPFLVPRP was tested, and the “shrunken log2 fold change” value was -0.426.
RRIRWRPPRLPRPRPRPQCDPRP was tested, and the “shrunken log2 fold change” value was 0.462.
With RRIRYRPPRLPRPRPRPPWWPRP the “shrunken log2 fold change” value was 0.605.
RRIRRRPPRLPRPRPRPSCCPRP was tested, and the “shrunken log2 fold change” value was -0.0867.
With RRIRIRPPRLPRPRPRPFRWPRP the “shrunken log2 fold change” value was -0.00968.
RRIRLRPPRLPRPRPRPVCDPRP was tested, and the “shrunken log2 fold change” value was -0.0188.
For RRIRFRPPRLPRPRPRPAKHPRP, the “shrunken log2 fold change” value was -0.149.
For RRIRKRPPRLPRPRPRPKYLPRP, the “shrunken log2 fold change” value was -0.0198.
With RRIRSRPPRLPRPRPRPHVHPRP the “shrunken log2 fold change” value was -0.412.
With RRIRTRPPRLPRPRPRPNLKPRP the “shrunken log2 fold change” value was -0.374.
RRIRGRPPRLPRPRPRPYVLPRP was tested, and the “shrunken log2 fold change” value was -0.114.
In the case of RRIRERPPRLPRPRPRPTRGPRP, the “shrunken log2 fold change” value is reported as 0.0807.
In the case of RRIRQRPPRLPRPRPRPPATPRP, the “shrunken log2 fold change” value is reported as 0.452.
In the case of RRIRWRPPRLPRPRPRPKQFPRP, the “shrunken log2 fold change” value is reported as 0.207.
In the case of RRIRWRPPRLPRPRPRPVKRPRP, the “shrunken log2 fold change” value is reported as 0.015.
RRIRQRPPRLPRPRPRPTGTPRP was tested, and the “shrunken log2 fold change” value was 0.285.
RRIRKRPPRLPRPRPRPARKPRP was tested, and the “shrunken log2 fold change” value was -0.0215.
